Test results reported in a protein production outcome set (Wang et al. 2014).

Test: label from the status in PepcDB records
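Also: failed if final PepcDB status was selected cloned or expressed and not failed if soluble or beyond.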

| Sequence | protein production |
| --- | --- |
| GEERKSSSWGRVDAMELPNYSRQLLQQLYTLCKEQQFCDCTISIGTIYFRAHKLVLAAASLLFKTLLDNTDTISIDASVVSPEEFALLLEMMYTGKLPVGKHNFSKIISLADSLQMFDVAVSCKNLLTSLVNCSVQGQVVRDVSAPSSETFRKEPEKPQVEILSSEGAGEPHSSPELAATPGGPVKAETEEAAHSVSQEMSVNSPTAQESQRNAETPAETPTTAEACSPSPPVQTFSEAKKTSTEPGCERKHYQLNFLLENEGVFSDALMVTQDVLKKLEMCSEIKGPQKEMIVKCFEGEGGHSAFQRILGKVREESLDVQTVVSLLRLYQYSNPAVKTALLDRKPEDVDTVQPKGSTEEGKTLSVLLLEHKEDLIQCVTQLRPIMESLETAKEEFLTGTEKRVILNCCEGRTPKETIENLLHRMTEEKTLTAEGLVKLLQAVKTTFPNLGLLLEKLQKSATLPSTTVQPSPDDYGTELLRRYHENLSEIFTDNQILLKMISHMTSLAPGEREVMEKLVKRDSGSGGFNSLISAVLEKQTLSATAIWQLLLVVQETKTCPLDLLMEEIRREPGADAFFRAVTTPEHATLETILRHNQLILEAIQQKIECKLFTSEEEHLAETVKEILSIPSETASPEASLRAVLSRAMEKSVPAIEICHLLCSVHKSFPGLQPVMQELAYIGVLTKEDGEKETWKVSNKFHLEANNKEDEKAAKEDSQPGEQNDQGETGSLPGQQEKEASASPDPAKKSFICKACDKSFHFYCRLKVHMKRCRVAKSKQVQCKECSETKDSKKELDKHQLEAHGAGGEPDAPKKKKKRLPVTCDLCGREFAHASGMQYHKLTEHFDEKPFSCEECGAKFAANSTLKNHLRLHTGDRPFMCKHCLMTFTQASALAYHTKKKHSEGKMYACQYCDAVFAQSIELSRHVRTHTGDKPYVCRDCGKGFRQANGLSIHLHTFHNIEDPYDCKKCRMSFPTLQDHRKHIHEVHSKEYHPCPTCGKIFSAPSMLERHMVTHVGGKPFSCGICNKAYQQLSGLWYHNRTHHPDVFAAQNHRSSKFSSLQCSSCDKTFPNTIEHKKHIKAEHADMKFHECDQCKELFPTPALLQVHVKCQHSGSQPFRCLYCAATFRFPGALQHHVTTEHFKQSETTFPCELCGELFTSQAQLDSHLESEHPKVMSTETQAAASQMAQVIQTPEPVAPTEQVITLEETQLAGSQVFVTLPDSQASQASSELVAVTVEDLLDGTVTLICGEAK | not failed |
| GEVKQIVGTPRDITQRKRREQMLKSRRRKIEALYRATSGLLSVETRDAVPGRIAEVLQEVFDFPLRHVGLVEGEMLVPKETVGEDLSRMPEPKAQPLSEDLVATRAIQAGEAVVVESTGGLENDLDYGTLSTLAGIPIGGHGAVVVGKEAGTFDALDLRLLEVLGGYGTLVLGRLEREERLVQAREEAEEAAQLKSAMLANMSHEVRTP | failed |
| GGVMHYTDKAALPADGEAREVAALFDTWNAALATGNPHKVADLYAPDGVLLPTVSNEVRASREQIENYFEMFLTKKPKGVINYRTVRLLDDDSAVDAGVYTFTLTDKNGKKSDVQARYTFVYEKRDGKWLIINHHSSAMPEVDTATATAAVTKAK | not failed |
| GHMEERVLGMPAVESNMFPLGKQAPPFALTNVIDGNVVRLEDVKSDAATVIMFICNHCPFVKHVQHELVRLANDYMPKGVSFVAINSNDAEQYPEDSPENMKKVAEELGYPFPYLYDETQEVAKAYDAACTPDFYIFDRDLKCVYRGQLDDSRPNNGIPVTGESIRAALDALLEGRPVPEKQKPSIGCSIKWKPSA | not failed |
| GHMPTKQQLLYEGKAKKIYATDEPDVLWVEYKDSATAFNGEKKATIAGKGRLNNEISSLLFLKLREAGIANHFIEKLSPTEQLVRRVTIIPLEVVVRNVVAGSLAKRIGLEEGTPLEAPLVEFYYKNDDLGDPLLLEDHIFILKLASREEVAALKQAALAVNDVLRLHFAERNVRLIDFKLEFGRTADGAILLADEISPDTCRLWDAKTNEKLDKDVFRRDLGSLTDAYEVILQRLGGESACTK | not failed |
| GHPTEVLCLMNMVLPEELLDDEEYEEIVEDVRDECSKYGLVKSIEIPRPVDGVEVPGCGKIFVEFTSVFDCQKAMQGLTGRKFANRVVVTKYCDPDSYHRRDFW | not failed |
| GIPSLVATAERRMKLVPGSVVMQFASIGFDVAVFELSMALCTGSRLVIVPDESRVAGPELTDFMAAHAVTHAIIPPSLLAALPSGCDVPEGCTVLVGTETVPPELIGRWAERLNLLAAYGLTEATVNNTLWQAQPGWDSAVPIGIP | failed |
| GKIVEIGVGFYLEVAKRLRESGIDILVVDINEKAINYARKQGIKGVVDDIFNPTLGIYKDAKAIYSIRPAPEMMKPLLDLARKLKIPLYIVPLTGDR | failed |
| GKSFDAVRRTLSTELAQLRDDISRLMQAAVEAGAEAADDGEAVVISGERKLLDVTDIASDMDRLRKMFSLFEKKTDLLQLLDVSSRAQGVQIYIGGDSQLVPMEEVSVITAPYGVDGKVIGTLGVIGPTRMAYERVIPIVDITARLLSNALSHNQ | failed |
| GKVYTINSGPIYANPIIHHQVNEKIGYLVYSAFESGFDQELFDVFKEFKSQNITELILDLRYNGGGDVTSANLISSCIAGDLCIDKTFASYRYNDERMKVLGNQRPIQKFAYSQYDNLSTSLSAGGLNLRKIYCLVTDDSASASELVINALRGIDIEVILIGTTTHGKNVGMEGVELTAGTDKYLLFPITFQAYNAKGFGDFENGFTPDYEINENKPNGEYFEGYGDFGAESDPLYAKAISLISGNEVTT | failed |
| GLPRRAVTQLVEQPLVVVDFLAHITAQGGHAAVIGWKDLAYAGVIDSGGVCENIIAIPNPGTEPLNVAAVLCEGLDVVVYKGPEISLSPTRARPLLGKLRQGTAALVMVGTKVSSPALSVDAEITDYVGIGAGSGRIRGVEMQVRAVSKTHGVRSGKVLISRP | failed |
| GMKAADFTYVTVHGDNSRMSRLKAQYTMLFFYDPDCSNCRKFEKLFAEIPAFVEMVENGTLRVLAIYPDENREEWATKAVYMPQGWIVGWNKAGDIRTRQLYDIRATPTIYLLDGRKRVILKDTSMEQLIDYLATQAG | not failed |
| GNLSFLATSDGASLAYRLDGAAEKPLLALSNSIGTTLHMWDAQLPALTRHFRVLRYDARGHGASSVPPGPYTLARLGEDVLELLDALEVRRAHFLGLSLGGIVGQWLALHAPQRIERLVLANTSAWLGPAAQWDERIAAVLQAEDMSETAAGFLGNWFPPALLERAEPVVERFRAMLMATNRHGLAGSFAAVRDTDLRAQLARIERPTLVIAGAYDTVTAASHGELIAASIAGARLVTLPAVHLSNVEFPQAFEGAVLSFLGA | not failed |
| GPHQRLEKLDSLLSDYDILSLSNIQQHSVRKRDLQTSTHVETLLTFSALKRHFKLYLTSSTERFSQNFKVVVVDGKNESEYTVKWQDFFTGHVVGEPDSRVLAHIRDDDVIIRINTDGAEYNIEPLWRFVNDTKDKRMLVYKSEDIKNVSRLQSPKVCGYLKVDNEELLPKGLVDREPPEGKT | not failed |
| GQGVSRSGALDLGALRSANRTVGNPSDMACVESVLGGLSFSCHGSAVIAITGAHTPVTITSASGLQWQASNYQPIELETGDRVSLGSPKAGLRSYLAIRGGFDVTPVLGSLSTDTLAQLGPEALATGDRLGFTAPVNGTSVSLNEAPAFELPTTANIVTLDVVMGPRTDWFTENAIQRLSSQLWRVTPQSNRVGIRLAGDTPLERSNHQELPSEGTSVGAIQVPASGQPVLFLADHPLTGGYPVIASVASHHLDLAGQIPVNAQIRFNPLGAFEEMQPSTEASFSTADAKNNS | failed |
| GQLDLLRSNTGLLYRIKDSQNAGKMKGSDNQEKLVYQIIEDAGNKGIWSRDVRYKSNLPLTEINKILKNLESKKLIKAVKSV | not failed |
| GQVDGEDVVSISSADLDETEGNLNMTTVSVRSGMTLSQVISRWLFTDDTIVPIEQVFPPGQSTEEVEESNRTAFISSESSATIAAMNYLNIPVEVEVAEVLTDSAATGIFEPGDKLLSIDGTAISTPGDAQTIVRSKAPGDEITISYERNDAESQATITLREHPDDSSVALLGISMLSVP | failed |
| GRRFVMVPGIGGSGPEHWQSHWESLYPNTLRIEPNSWDEPDLADWFAALDRAVAAAPYPPVLVCHSLGCLLFAHWRAASSRAIAAAFLVAVPDPSGPAFPAQAKAFGALPATGFGERPVLAVASENDPYDPEASAIAWAVRQGAWPRRLGPRGHLNEASNIGAWPEGQELLADFLDKIGE | failed |
| GSFQYVPVQLQGGAPWGFTLKGGLEHCEPLTVSKIEDGGKAALSQKMRTGDELVNINGTPLYGSRQEALILIKGSFRILKLIVRRRN | not failed |
| GSGCPLLENVISKTINPQVSKTEYKELLQEFIDDNATTNAIDELKECFLNQTDETLSNVEVFMQLIYDSSLCDLF | failed |
| GSHMEKVPGEMEIERRERSEELSEAERKAVQAMWARLYANCEDVGVAILVRFFVNFPSAKQYFSQFKHMEDPLEMERSPQLRKHACRVMGALNTVVENLHDPDKVSSVLALVGKAHALKHKVEPVYFKILSGVILEVVAEEFASDFPPETQRAWAKLRGLIYSHVTAAYKEVGWVQQVPNATTPPATLPSSGP | not failed |
| GSHMPVPSFGEAMAYFAMVKRYLTSFPIDDRVQSHILHLEHDLVHVTRKNHARQAGVRGLGHQS | not failed |
| GSIPRVLISADRSSSGKTTISMGLMAALVSRGYKVQPFKVALDYIDPSYHTEITGRFCRNLDGYLMDEHGILDVYTHACETGGGADIAIIEGVRGLFEGFESLSDVGSTAQIAKILKCPVVFVINARSITRSAAALIGGYKNFDPDVEIAGVILNNIGGRRHAQKAKEAIEHYTGVPVLGIIPRDPSMQISMRHLGLMPALEGRRRFGDGGFENRLHGIEEIINKGIDVDRFLGIAESAKPLTALENSIFSPAVNENSQKPKIGVALDEAFNFYYRDNIDLLEIAGAEIVYFSPVNDPGLPEVDGLYIGGGYPELFAAELEANETMRKSIKEASAAGMPIYAECGGLMYLTEKISTGVPGKGTYHDASMPESTYSMVGALPGHTIMGQTRVVSYNIGTLARDCPIGKKGNSFKGHEFHHSEILEIPDDAEFAIALTRGTGIRGDRDGLIVNNTIGSYAHLHGVAYRELAGSLVEAARKFRDS | failed |
| GSKGSRIELGDVTPHNIKQLKRLNQVIFPVSYNDKFYKDVLEVGELAKLAYFNDIAVGAVCCRVDHSQNQKRLYIMTLGCLAPYRRLGIGTKMLNHVLNICEKDGTFDNIYLHVQISNESAIDFYRKFGFEIIETKKNYYKRIEPADAHVLQKNLKVPSGQNADVQKTDN | failed |
| GSSGSSGMKQATRKPTTPGDILLYEYLEPLDLKINELAELLHVHRNSVSALINNNRKLTTEMAFRLAKVFDTTVDFWLNLQAAVDLWEVENNMRTQEELGRIETVAEYLARREERAKKVA | not failed |
| GSSGSSGPSSPSIDQVEPYSSTAQVQFDEPEATGGVPILKYKAEWRAVGEEVWHSKWYDAKEASMEGIVTIVGLKPETTYAVRLAALNGKGLGEISAASEFKTQPVREPSAPKLEGSGPSSG | not failed |
| GSSGSSGWVAFDKQVLSFDAYLEEEVLDKSQTNYRIRYYKIYFYPEDDTIQVNEPEVKNSGLLQGTSIRRHRITLPPPDEDQFYTVYHFNVGTEVVFYGRTFKIYDCDAFTRNFLRKIGVKVNPPVQSGPSSG | not failed |
